Source: article PMC2943749
Several values for one entry are separate records, joined by “and”; a condition that tells them apart may be missing. Identical values can stand only once.

Biological target: PtdIns5P 4-kinase IIβ, genomically tagged with a FLAG-(His6)2 tag (DT40 cell line JPR3) (chicken (endogenous in DT40))
Experiment: affinity purification with mass spectrometry

## PtdIns5P 4-kinase IIα, endogenous and untagged (in JPR3 DT40 cells) (from UniProt Q5F356 1-405) (enzyme)
  ratio IIβ/IIα in the pull-down (peptide set 559/565): 1.39 and 1.37 and 1.75
  ratio IIβ/IIα in the pull-down (peptide set 829/828): 0.92 and 1.41 and 1.47
